Data on four compounds can be found in PMC6340302 (ACS chemical biology, 2018).

Assay [1] concerns the target T1, dbOphMA (Dendrothele bispora, UniProt A0A4S8L4Q5).
T1 sequence (A0A4S8L4Q5 1-377): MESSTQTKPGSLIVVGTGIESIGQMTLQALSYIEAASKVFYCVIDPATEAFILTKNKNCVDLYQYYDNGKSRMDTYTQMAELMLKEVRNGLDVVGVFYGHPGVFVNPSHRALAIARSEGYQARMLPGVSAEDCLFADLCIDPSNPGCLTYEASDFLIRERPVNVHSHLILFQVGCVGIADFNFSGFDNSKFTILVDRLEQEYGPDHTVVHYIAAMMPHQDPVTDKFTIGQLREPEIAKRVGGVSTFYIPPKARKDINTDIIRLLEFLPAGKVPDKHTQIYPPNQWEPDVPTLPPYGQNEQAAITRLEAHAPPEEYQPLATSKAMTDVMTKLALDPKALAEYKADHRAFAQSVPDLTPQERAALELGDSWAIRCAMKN
In words: microscale thermophoresis. Format: binding.

Assay [2] concerns the target dbOphM, the catalytic component of dbOphMA (Met1-Asn377), which lacks the precursor peptide (Dendrothele bispora CBS 962.96). Put plainly: crystal structure.
For assay [3], the target named is dbOphMA, methyltransferase-precursor fusion protein from Dendrothele bispora CBS 962.96, full-length fusion (residues Met1-Ala417) (Dendrothele bispora CBS 962.96).
For assay [4] the target is unchanged. Put plainly: crystal structure.
In assay [5] the target is T1, dbOphMA. Put plainly: microscale thermophoresis. Format: binding. The source holds these as a separate data set.

Read-outs that look alike come from different tables or passages of the source.

With `Nc1ncnc2c1ncn2[C@@H]1O[C@H](CSCC[C@H](N)C(=O)O)[C@@H](O)[C@H]1O` [SAH, S-adenosyl homocysteine], in assay [1], the Kd worked out at 6.88 µM.

Consider “dbOphM, the catalytic component of dbOphMA (Met1-Asn377), which lacks the precursor peptide (domain or fragment)”, for which the stoichiometry N in assay [2] was determined as 2.

Regarding “dbOphMA, methyltransferase-precursor fusion protein from Dendrothele bispora CBS 962.96, full-length fusion (residues Met1-Ala417) (enzyme)”, the stoichiometry N in assay [3] and in assay [4] was 2 each time.

For `C[S@@+](CC[C@H](N)C(=O)O)C[C@H]1O[C@@H](n2cnc3c(N)ncnc32)[C@H](O)[C@@H]1O` [SAM, S-adenosyl methionine], in assay [5], the Kd is 80.7 µM. This lies in the double-digit micromolar range.
